Test results published in publication PMC8776730 (Nature Communications, 2022).
One block for each molecule: values may come before it.

Tests used:
[1] = tested on: MIA PaCa-2 tumor; conditions: mouse, in vivo, iv, 16 mg/kg
Description: In order to reduce systemic error and individual difference, we constructed the subcutaneous pancreatic cancer model in mice for quantitatively calculating of the metabolic data.
All the animal experiments were performed in accordance with the Guide for the Care and Use of Laboratory Animals approved by the Committee for Animal Research of the National Center for Nanoscience and Technology. The MIA PaCa-2 tumor-bearing mice were intravenously injected with ICG, M1 and M2 (16 mg/kg), respectively for in vivo fluorescence imaging with in vivo spectrum imaging system. Finally, mice were sacrificed to collect the major organs and tumors for ex vivo fluorescence imaging.

[2] = mouse, in vivo, iv, 16 mg/kg
[3] = tested on: Recombinant Human Fibroblast Activation Protein-α (FAP-α); assay: FAP-α in buffer: 50 mM Tris, 1 M NaCl, 1 mg/mL, BSA, pH 7.5; conditions: up to 12 h
[4] = molecular target: T1, FAP-α (Homo sapiens, UniProt Q12884); assay: FAP-α tailoring (cleavage) followed by HPLC and MALDI-TOF; type: biochemical; conditions: 100 μM molecule, FAP-α 50 μM, 12 h; buffer 50 mM Tris, 1 M NaCl, 1 mg/mL BSA, pH 7.5; HPLC (M3, M5), MALDI-TOF (M1)
T1 construct: purchased R&D SYSTEM
T1 sequence (Q12884 1-760): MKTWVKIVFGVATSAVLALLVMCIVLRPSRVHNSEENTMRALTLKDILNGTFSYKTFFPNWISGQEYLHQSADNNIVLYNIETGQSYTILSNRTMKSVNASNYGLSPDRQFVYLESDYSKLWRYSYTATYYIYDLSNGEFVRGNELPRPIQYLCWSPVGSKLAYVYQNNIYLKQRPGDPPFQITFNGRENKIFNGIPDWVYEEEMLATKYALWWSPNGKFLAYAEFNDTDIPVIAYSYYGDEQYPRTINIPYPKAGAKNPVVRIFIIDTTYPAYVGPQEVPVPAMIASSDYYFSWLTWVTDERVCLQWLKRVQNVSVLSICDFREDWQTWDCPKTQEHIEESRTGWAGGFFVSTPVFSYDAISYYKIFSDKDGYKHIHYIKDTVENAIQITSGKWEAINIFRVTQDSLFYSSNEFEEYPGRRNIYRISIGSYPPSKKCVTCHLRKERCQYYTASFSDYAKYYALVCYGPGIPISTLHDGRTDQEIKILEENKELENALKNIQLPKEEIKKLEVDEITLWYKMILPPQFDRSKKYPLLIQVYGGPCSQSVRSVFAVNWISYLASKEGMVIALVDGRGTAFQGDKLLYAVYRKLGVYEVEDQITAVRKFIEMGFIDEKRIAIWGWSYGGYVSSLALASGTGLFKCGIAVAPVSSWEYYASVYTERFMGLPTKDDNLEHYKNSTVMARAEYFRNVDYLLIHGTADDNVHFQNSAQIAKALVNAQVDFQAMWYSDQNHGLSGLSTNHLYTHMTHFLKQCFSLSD
Source text: To further investigate the FAP-α specific tailoring and BIVA probe assembly in situ simultaneously (Fig. 4a), the high-performance liquid chromatography (HPLC), TEM, and matrix-assisted laser desorption/ionization time-of-flight (MALDI-TOF) mass spectrometry were applied for the characterizations purpose. To specify the cutting of the response tailoring motif (Gly-Pro-Ala), pre-synthesized molecules of R-M3, M3 and M5 were set as controls. […] Comparing the residues peaks with R-M3, the primary sharp peak at 27.4 min can be identified by the R-M3 control (27.6 min). […] The retention time of M1 after co-incubation with inactivated FAP-α was similar to that of M3 (Supplementary Fig. 14). After hydrolyzed by FAP-α, the residues of M1 in situ assembled into nanofibers structures under the complex buffer (Fig. 4c and Supplementary Fig. 15). […] In order to further evaluate the specificity of M1 for different enzymes, including FAP-α, pepsin, pancreatin, lipase, and BSA, we used ThT (Thioflavin T) as a detection probe (Fig. 4e).
Fig. 4 The FAP-α specific molecule tailoring and inducing in situ assembly. a The illustration the working mechanism of BIVA probe based on FAP-α catalytic hydrolysis. b HPLC curves of M3 and M5 after incubation with FAP-α in buffer. R-M3, M3 and M5 were synthesized controls. The TEM image (c), and the MALDI-TOF (d), results of M1 after tailoring by FAP-α in buffer, the red arrows represent the assembled fibrils of M1 after incubation with FAP-α. e The enzyme specificity of M1 in buffer. Buffer: 50 mM Tris, 1 M NaCl, 1 mg/mL, BSA, pH 7.5; Concentration of M1 and M3: 100 μM; Concentration of FAP-α: 50 μM; incubation time: 12 h. […]

[5] = Critical assembly concentration (CAC) by pyrene fluorescence probe; type: physicochemical
Source text: In order to study the molecular design and their assembly behavior, we modular designed and synthesized seven molecules (Table 1), which respectively were BIVA probe: M1 (mPEG-GPAKLVFFGC(IR783)GRGD); the non- FAP-α tailoring molecule: M2 (mPEG-AGGKLVFFGC(IR783)GRGD) scrambled response tailoring motif of Gly-Pro-Ala with Ala-Gly-Gly; the non-labeling molecule of M1: M3 (mPEG-GPAKLVFFGCGRGD) removed IR783 labeling; FAP-α tailoring residue of M1: R-M1 (AKLVFFGC(IR783)GRGD); the non-targeting molecule: M4 (mPEG-GPAKLVFFGC(IR783)GDTG) scrambled targeting tailoring motif of Arg-Gly-Asp with Asp-Thr-Gly; the non-labeling molecule of M2: M5 (mPEG-AGGKLVFFGCGRGD) removed IR783 labeling; FAP-α tailoring residue of M3: R-M3 (AKLVFFGCGRGD). All the synthesized procedure (Supplementary Fig. 1) and characterizations of these seven molecules can be found in SI (Supplementary Figs. 2–8). […] Without IR783 labeling, molecules of M3 and M5 decreased the CAC value in solution relative to M1 and M2, which could be attributed to the proximity of the steric hindrance of hydrophilic IR783 to the self-assembly motif (Supplementary Fig. 9). […] The CAC was quantitatively calculated by fluorescence probe of pyrene.

[6] = tested on: MIA PaCa-2 cells; assay: Cellular imaging (CLSM) of FITC-labelled molecules; type: cell-based; conditions: FITC-labelled molecules, MIA PaCa-2 cells, 1 h incubation, CLSM
Description: To further confirm this hypothesis, the M1 and M2 were equally labeled by FITC for cell imaging (Fig. 5b). To simulate the dynamic physiological condition, the cell culture medium was replaced every 15 min. After 1 h of incubation with M1 and M2 at the same molecule molar concentration, there occurred significant differences between the two molecules (Fig. 5c). […] The huge difference can be explained by the fact that the secondary assembly rate broke the balance between the targeted ligand and receptor, and thus tended to a stable assembly interaction. The retention efficiency depended on the assembly rate constant Ka. Meanwhile, the rapid dynamic assembly of BIVA probe in situ around the cell membrane, and contributed to the efficient formation and retention of nanofibers on the cell profile. When the incubation time was delayed up to 2 h, some components could be endocytosed into the cells, but most of them were found on the membranes (Supplementary Fig. 18). […] Then, the isolated cells were collected and lysed, the extracted cell membrane fragments were stained with ThT. […] In order to verify the influence of the addition of the targeting module of the probe molecules, we explored the imaging of R-M1 and M4 on cells.
(§1) Fig. 5 The BIVA effect with enhanced targeting to pancreatic tumor cell for boundaries imaging. a Illustration of BIVA effect: active targeting and assembly/aggregate induced retention (AIR) effect. b Chemical structure of FITC labeling. c 2D and 3D confocal images of M2 with active targeting property and M1 with BIVA effect on MIA PaCa-2 cells after incubation for 1 h. d The distribution of M1 on MIA PaCa-2 cell. e ThT staining of the lysed cell membrane of MIA PaCa-2. f, Illustration of migration inhibition after treated by BIVA probe. g The image of the migrated cells after treatment of PBS (blank), M2, M4, and M1. Scale bar: 100 μm. h The pie diagram of quantitative statistical calculation of the migrated cells (blue) in different groups. The blank control was set as 100% migrated cells.
MIA PaCa-2 cells were digested with trypsin, counted with cell counting plate, diluted to 1 × 10^4 with DMEM medium, and 1 mL to 1 cm diameter confocal microscope dish was taken. The cells were incubated in […] atmosphere for 24 h. The medium containing M1 and M2 (50 μM) was replaced and incubated with the cells for 2 h. The cells were washed with PBS for 3 times. CLSM (Zeiss 710) was used to image cells under 40 × objective, excitation = 488 nm, and emission >520 nm.
Supplementary Fig. 19 ∣ CLSM images of Miapaca-2 cells treated with different molecules or M1 under different conditions. […]

[7] = tested on: MIA PaCa-2 cells; assay: Transwell migration assay; type: cell-based; conditions: MIA PaCa-2, 150 μM, 24 h; blank control = 1
Description: as §1
In order to further understand the contribution of the active targeting and AIR effect during locating of the cells, the cell transwell experiment was used to quantitively evaluate interference of the cell migration based on M1, M2, and M4 (Fig. 5f). As expected, untreated cells were easy to migrate to the lower chamber, while the cells treated with active targeting molecule M2 and assembled molecule M4, the migration of cell were reduced. Under the same molar concentration, the M1 treatment group had the most inference on cell migration (Fig. 5g). […] Based on those results, we speculate M1 can be more enriched in the tumor site and form fibers through assembly to inhibit tumor cell migration compared to M2 and M4 which have no ability to target and adhere on the cell membrane.
Transwell migration assay occurred in chemotaxis chambers containing 24 wells. […] Bottom chambers contained DMEM medium containing 10% FBS. After 24 h of treatment with M1, M2, and M4 (150 μM), we fixed cells using 4% paraformaldehyde and stained with 0.25% crystal violet solution. The stained cells were counted using a microscope.
Supplementary Fig. 20∣ The quantitative results of the migrated cells after treatment of PBS (blank), M2, […] and
M1 (Fig 5g). The mean of results of fiveparallel experiments is shown and data were expressed as mean ± SD (n=5).
pM1 = 5.85E-06, pM2 = 5.94E-05, pM4 = 3.16 E-04, Statisticalanalysis: one-way ANOVA followed by post hoc Tukey’s
(1 picture or pasted object on this page, not shown here)

time to complete metabolic clearance [1]: ≤ 8 h
blood circulation half-life (t1/2) [2]: 2.5 ± 0.5 min
Molecule: CC1(C)C(/C=C/C=C/C=C/C=C2\N(CCCCS(=O)(=O)O)c3ccc4ccccc4c3C2(C)C)=[N+](CCCCS(=O)(=O)[O-])c2ccc3ccccc3c21 [ICG, indocyanine green]

not cleaved [3]: no change of the retention peak
Molecule: mPEG-AGGKLVFFGCGRGD

tailoring (cleavage) by FAP-α [4]: no change of the retention peak
Molecule: mPEG-AGGKLVFFGCGRGD [M5, the non-labeling molecule of M2]
Critical assembly concentration (CAC) ([5]; aqueous solution, analyzed based on pyrene fluorescence): >332.7 µM
pyrene I1/I3 ([5]; conc 100 μM): 1.152
pyrene I1/I3 ([5]; conc 200 μM): 1.176
pyrene I1/I3 ([5]; conc 300 μM): 1.178
pyrene I1/I3 ([5]; conc 400 μM): 1.119
pyrene I1/I3 ([5]; conc 500 μM): 1.173
pyrene I1/I3 ([5]; conc 600 μM): 1.077
pyrene I1/I3 ([5]; conc 700 μM): 1.029
pyrene I1/I3 ([5]; conc 800 μM): 1.021
pyrene I1/I3 ([5]; conc 900 μM): 0.975

Molecule: mPEG-GPAKLVFFGC(IR783)GDTG [M4, the non-targeting molecule]
fluorescence signal on the cell membrane [6]: only a small amount of fluorescence signal
emigrate (migrated cells relative to blank) [7]: 0.5282

cleaved bond [3]: Pro-Ala
Molecule: mPEG-GPAKLVFFGCGRGD
